One data set deals with proteasome. Kind of data set: Proteasome inhibition: Ste7 disappearance in MG132-permeable erg6 mutant. As to conditions: MG132 100 μM, 2 h. The class given is cell-based, Saccharomyces cerevisiae. The protocol: To test if the IpaH-mediated disappearance of Ste7 required proteasome function, a yeast strain carrying the cim5-1 allele encoding a component of the 26-S proteasome that is functional at 25° C. but not at 37° C. (Ghislain et al., 1993) was used. […] (FIG. 3A). […] Thus, the disappearance of Ste7 promoted by IpaH9.8 is proteasome-dependent.
Standard media and techniques were used for transformation, maintenance, and growth of yeast (Guthrie C, 1991). Halo assays were performed as described (Hoffman et al., 2002) using disks impregnated with 15 μg of α-factor. erg6 ? yeast were transformed with plasmids encoding IpaH9.8 or IpaH9.8-C337A and grown in selective media containing 1% raffinose to mid log phase. Following addition of MG132 (100 μM) and galactose (2%), cultures were incubated for 2 h and cell extracts were prepared as described (Wang et al., 2003). β-Galactosidase assays were performed as described (Guarente, 1983).

Data set [1] concerns the target His-tagged UbcH5B, P62837.
In the next data set the test system is sst2Δ cells. Description: Growth of sst2Δ yeast in the presence of pheromone. The following applies: galactose-induced production, α-factor plates. The class given is cell-based, Saccharomyces cerevisiae.

Peptide text beside a SMILES is read from it. * marks the point of attachment. Cbz = O=C(OCc1ccccc1)*

Results on four molecules are retold here after patent US20080261241A1, “Targeted ubiquitination of proteins and screening methods using a new class of ubiquitin ligase proteins” (INSTITUT PASTEUR, priority 2007, published 2008).

Sequence of His-tagged UbcH5B, P62837 (P62837 whole entry, looked up): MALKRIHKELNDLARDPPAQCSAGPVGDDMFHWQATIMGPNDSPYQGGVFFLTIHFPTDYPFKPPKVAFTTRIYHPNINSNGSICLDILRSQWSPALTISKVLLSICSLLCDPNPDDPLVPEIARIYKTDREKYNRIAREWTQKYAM

For `CC(C)C[C@@H](C=O)NC(=O)[C@H](CC(C)C)NC(=O)[C@H](CC(C)C)NC(=O)OCc1ccccc1` [MG132] (Cbz-Leu-Leu-Leu-aldehyde), the “disappearance of Ste7 provoked by IpaH9.8” value in the data set on proteasome was “prevented the disappearance of Ste7”.

B1: GST-SspH1 (protein)
chain: EFMLPINNNFSLPQNSFYNTISGTYADYFSAWDKWEKQALPGEERDEAVSRLKECLINNSDELRLDRLNLSSLPDNLPAQITLLNVSYNQLTNLPELPVTLKKLYSASNKLSELPVLPPALESLQVQHNELENLPALPDSLLTMNISYNEIVSLPSLPQALKNLRATRNFLTELPAFSEGNNPVVREYFFDRNQISHIPESILNLRNECSIHISDNPLSSHALQALQRLTSSPDYHGPRIYFSMSDGQQNTLHRPLADAVTAWFPENKQSDVSQIWHAFEHEEHANTFSAFLDRLSDTVSARNTSGFREQVAAWLEKLSASAELRQQSFAVAADATESCEDRVALTWNNLRKTLLVHQASEGLFDNDTGALLSLGREMFRLEILEDIARDKVRTLHFVDEIEVYLAFQTMLAEKLQLSTAVKEMRFYGVSGVTANDLRTAEAMVRSREENEFTDWFSLWGPWHAVLKRTEADRWAQAEEQKYEMLENEYPQRVADRLKASGLSGDADAEREAGAQVMRETEQQIYRQLTDEVLALRLFENGSQLHHS
On to B1, for which the “removal of ubiquitin from ubiquitinated UbcH5B” value in data set [1] was “SspH1 was endowed with the activities (i) to remove ubiquitin from ubiquitinated UbcH5B”.

B2: IpaH7.8: another IpaH family member from Shigella (protein, UniProt P18014 1-565, looked up)
E3 ubiquitin-protein ligase …: MFSVNNTHSSVSCSPSINSNSTSNEHYLRILTEWEKNSSPGEERGIAFNRLSQCFQNQEAVLNLSDLNLTSLPELPKHISALIVENNKLTSLPKLPAFLKELNADNNRLSVIPELPESLTTLSVRSNQLENLPVLPNHLTSLFVENNRLYNLPALPEKLKFLHVYYNRLTTLPDLPDKLEILCAQRNNLVTFPQFSDRNNIRQKEYYFHFNQITTLPESFSQLDSSYRINISGNPLSTRVLQSLQRLTSSPDYHGPQIYFSMSDGQQNTLHRPLADAVTAWFPENKQSDVSQIWHAFEHEEHANTFSAFLDRLSDTVSARNTSGFREQVAAWLEKLSASAELRQQSFAVAADATESCEDRVALTWNNLRKTLLVHQASEGLFDNDTGALLSLGREMFRLEILEDIARDKVRTLHFVDEIEVYLAFQTMLAEKLQLSTAVKEMRFYGVSGVTANDLRTAEAMVRSREENEFTDWFSLWGPWHAVLKRTEADRWAQAEEQKYEMLENEYSQRVADRLKASGLSGDADAEREAGAQVMRETEQQIYRQLTDEVLALRLSENGSRLHHS
On to B2, for which, in the data set with sst2Δ cells, the “growth of sst2Δ cells in the presence of pheromone” value was “rescued the pheromone-induced growth arrest of sst2Δ cells”.

B3: GST-IpaH9.8 (protein)
chain: MLPINNNFSLPQNSFYNTISGTYADYFSAWDKWEKQALPGEERDEAVSRLKECLINNSDELRLDRLNLSSLPDNLPAQITLLNVSYNQLTNLPELPVTLKKLYSASNKLSELPVLPPALESLQVQHNELENLPALPDSLLTMNISYNEIVSLPSLPQALKNLRATRNFLTELPAFSEGNNPVVREYFFDRNQISHIPESILNLRNECSIHISDNPLSSHALQALQRLTSSPDYHGPRIYFSMSDGQQNTLHRPLADAVTAWFPENKQSDVSQIWHAFEHEEHANTFSAFLDRLSDTVSARNTSGFREQVAAWLEKLSASAELRQQSFAVAADATESCEDRVALTWNNLRKTLLVHQASEGLFDNDTGALLSLGREMFRLEILEDIARDKVRTLHFVDEIEVYLAFQTMLAEKLQLSTAVKEMRFYGVSGVTANDLRTAEAMVRSREENEFTDWFSLWGPWHAVLKRTEADRWAQAEEQKYEMLENEYPQRVADRLKASGLSGDADAEREAGAQVMRETEQQIYRQLTDEVLALRLSENGSQLHHS
In the case of B3, the “removal of ubiquitin from ubiquitinated UbcH5B, immunoblot with streptavidin-peroxidase” value in data set [1] is “after ubiquitination of UbcH5B, addition of GST-IpaH9.8 to the reaction mixture promoted the removal of ubiquitin from UbcH5B”.
